# The supplement of paper PMC11246515
# ± gives the standard deviation of the averaged measurements.
# Test: total protein half-life in vivo (active degradation + dilution); higher = more stable protein
# [1] = E. coli NCM3722 delta-clpP delta-lon delta-hslV, growth: N-lim chemostat, doubling time 6 h
# [2] = E. coli NCM3722 delta-hslV, growth: N-lim chemostat, doubling time 6 h
# [3] = E. coli NCM3722 delta-lon, growth: N-lim chemostat, doubling time 6 h
# [4] = E. coli NCM3722 delta-smpB, growth: N-lim chemostat, doubling time 6 h
# [5] = wild type E. coli NCM3722, growth: C-lim chemostat, doubling time 12 h
# [6] = wild type E. coli NCM3722, growth: N-lim chemostat, doubling time 6 h
# [7] = wild type E. coli NCM3722, growth: N-lim chemostat, doubling time 12 h
# [8] = wild type E. coli NCM3722, growth: P-lim chemostat, doubling time 6 h
# [9] = wild type E. coli NCM3722, growth: P-lim chemostat, doubling time 12 h
# [10] = E. coli NCM3722 delta-clpP, growth: N-lim chemostat, doubling time 6 h
# [11] = wild type E. coli NCM3722, growth: C-lim chemostat, doubling time 6 h
# [12] = wild type E. coli NCM3722, growth: C-lim chemostat, doubling time 3 h
Sequence,total protein half-life in vivo [1] [h],total protein half-life in vivo [2] [h],total protein half-life in vivo [3] [h],total protein half-life in vivo [4] [h],total protein half-life in vivo [5] [h],total protein half-life in vivo [6] [h],total protein half-life in vivo [7] [h],total protein half-life in vivo [8] [h],total protein half-life in vivo [9] [h],total protein half-life in vivo [10] [h],total protein half-life in vivo [11] [h],total protein half-life in vivo [12] [h]
MAATKPAFNPPGKKGDIIFSVLVKLAALIVLLMLGGIIVSLIISSWPSIQKFGLAFLWTKEWDAPNDIYGALVPIYGTLVTSFIALLIAVPVSFGIALFLTELAPGWLKRPLGIAIELLAAIPSIVYGMWGLFIFAPLFAVYFQEPVGNIMSNIPIVGALFSGPAFGIGILAAGVILAIMIIPYIAAVMRDVFEQTPVMMKESAYGIGCTTWEVIWRIVLPFTKNGVIGGIMLGLGRALGETMAVTFIIGNTYQLDSASLYMPGNSITSALANEFAEAESGLHVAALMELGLILFVITFIVLAASKFMIMRLAKNEGAR [P0AGH8],5.52 ± 1,5.62 ± 0.46,5.31 ± 1.4,5.08 ± 0.47,15.4,3.42,12.1,5.49 ± 0.25,11.4 ± 0.52,–,–,–
MACGEFSLIARYFDRVRSSRLDVELGIGDDCALLNIPEKQTLAISTDTLVAGNHFLPDIDPADLAYKALAVNLSDLAAMGADPAWLTLALTLPDVDEAWLESFSDSLFDLLNYYDMQLIGGDTTRGPLSMTLGIHGFVPMGRALTRSGAKPGDWIYVTGTPGDSAAGLAILQNRLQVADAKDADYLIKRHLRPSPRILQGQALRDLANSAIDLSDGLISDLGHIVKASDCGARIDLALLPFSDALSRHVEPEQALRWALSGGEDYELCFTVPELNRGALDVALGHLGVPFTCIGQMTADIEGLCFIRDGEPVTLDWKGYDHFATP [P0AGG0],5.68 ± 0.31,5.14 ± 1.4,–,3.99 ± 0.23,10.2 ± 1,4.17 ± 0.23,7.02 ± 0.95,5.41 ± 0.33,12.1 ± 0.31,4.97 ± 0.5,5.41 ± 0.077,–
MADILLLDNIDSFTYNLADQLRSNGHNVVIYRNHIPAQTLIERLATMSNPVLMLSPGPGVPSEAGCMPELLTRLRGKLPIIGICLGHQAIVEAYGGYVGQAGEILHGKASSIEHDGQAMFAGLTNPLPVARYHSLVGSNIPAGLTINAHFNGMVMAVRHDADRVCGFQFHPESILTTQGARLLEQTLAWAQQKLEPANTLQPILEKLYQAQTLSQQESHQLFSAVVRGELKPEQLAAALVSMKIRGEHPNEIAGAATALLENAAPFPRPDYLFADIVGTGGDGSNSINISTASAFVAAACGLKVAKHGNRSVSSKSGSSDLLAAFGINLDMNADKSRQALDELGVCFLFAPKYHTGFRHAMPVRQQLKTRTLFNVLGPLINPAHPPLALIGVYSPELVLPIAETLRVLGYQRAAVVHSGGMDEVSLHAPTIVAELHDGEIKSYQLTAEDFGLTPYHQEQLAGGTPEENRDILTRLLQGKGDAAHEAAVAANVAMLMRLHGHEDLQANAQTVLEVLRSGSAYDRVTALAARG,3.96 ± 0.42,2.96 ± 0.18,3.02 ± 0.12,2.769 ± 0.019,10.4 ± 1.9,3.01 ± 0.27,3.72 ± 0.29,6.54 ± 1.6,12.2 ± 3.9,3.018 ± 0.0036,4.79 ± 0.1,3.23 ± 0.33
MADKKLDTQLVNAGRSKKYTLGAVNSVIQRASSLVFDSVEAKKHATRNRANGELFYGRRGTLTHFSLQQAMCELEGGAGCVLFPCGAAAVANSILAFIEQGDHVLMTNTAYEPSQDFCSKILSKLGVTTSWFDPLIGADIVKHLQPNTKIVFLESPGSITMEVHDVPAIVAAVRSVVPDAIIMIDNTWAAGVLFKALDFGIDVSIQAATKYLVGHSDAMIGTAVCNARCWEQLRENAYLMGQMVDADTAYITSRGLRTLGVRLRQHHESSLKVAEWLAEHPQVARVNHPALPGSKGHEFWKRDFTGSSGLFSFVLKKKLNNEELANYLDNFSLFSMAYSWGGYESLILANQPEHIAAIRPQGEIDFSGTLIRLHIGLEDVDDLIADLDAGFARIV,4.64 ± 0.42,3.95 ± 0.2,6.18 ± 0.7,4.33 ± 0.2,9.28 ± 0.72,4.28 ± 0.085,–,6.1 ± 0.46,12.1 ± 1.6,4.43 ± 0.49,4.76 ± 1.1,3.36 ± 0.33
MADLDDIKDGKDFRTDQPQKNIPFTLKGCGALDWGMQSRLSRIFNPKTGKTVMLAFDHGYFQGPTTGLERIDINIAPLFEHADVLMCTRGILRSVVPPATNRPVVLRASGANSILAELSNEAVALSMDDAVRLNSCAVAAQVYIGSEYEHQSIKNIIQLVDAGMKVGMPTMAVTGVGKDMVRDQRYFSLATRIAAEMGAQIIKTYYVEKGFERIVAGCPVPIVIAGGKKLPEREALEMCWQAIDQGASGVDMGRNIFQSDHPVAMMKAVQAVVHHNETADRAYELYLSEKQ,4.41 ± 0.29,3.03 ± 0.036,3.91 ± 0.79,3.6 ± 0.39,8.52 ± 0.53,3.58,4.43 ± 0.74,5.44 ± 0.21,11 ± 0.47,3.51 ± 0.53,5.1 ± 0.23,3.27 ± 0.084
MADRNLRDLLAPWVPDAPSRALREMTLDSRVAAAGDLFVAVVGHQADGRRYIPQAIAQGVAAIIAEAKDEATDGEIREMHGVPVIYLSQLNERLSALAGRFYHEPSDNLRLVGVTGTNGKTTTTQLLAQWSQLLGEISAVMGTVGNGLLGKVIPTENTTGSAVDVQHELAGLVDQGATFCAMEVSSHGLVQHRVAALKFAASVFTNLSRDHLDYHGDMEHYEAAKWLLYSEHHCGQAIINADDEVGRRWLAKLPDAVAVSMEDHINPNCHGRWLKATEVNYHDSGATIRFSSSWGDGEIESHLMGAFNVSNLLLALATLLALGYPLADLLKTAARLQPVCGRMEVFTAPGKPTVVVDYAHTPDALEKALQAARLHCAGKLWCVFGCGGDRDKGKRPLMGAIAEEFADVAVVTDDNPRTEEPRAIINDILAGMLDAGHAKVMEGRAEAVTCAVMQAKENDVVLVAGKGHEDYQIVGNQRLDYSDRVTVARLLGVIA,5.09 ± 0.76,3.43 ± 0.23,4.497 ± 0.044,3.39 ± 0.23,9.05 ± 0.4,3.71 ± 0.04,6.39 ± 0.93,5.18 ± 0.14,8.724 ± 0.074,3.51 ± 0.15,5.8 ± 0.085,2.65 ± 0.31
MADTHHAQGPGKSVLGIGQRIVSIMVEMVETRLRLAVVELEEEKANLFQLLLMLGLTMLFAAFGLMSLMVLIIWAVDPQYRLNAMIATTVVLLLLALIGGIWTLRKSRKSTLLRHTRHELANDRQLLEEESREQ,6.43 ± 0.14,7.19 ± 0.63,5.35 ± 1.2,6.49 ± 0.34,11 ± 0.91,6.27 ± 0.46,11.7 ± 3.4,4.39 ± 0.56,–,6.06 ± 0.94,5.36 ± 0.18,2.99 ± 0.26
MADWVTGKVTKVQNWTDALFSLTVHAPVLPFTAGQFTKLGLEIDGERVQRAYSYVNSPDNPDLEFYLVTVPDGKLSPRLAALKPGDEVQVVSEAAGFFVLDEVPHCETLWMLATGTAIGPYLSILQLGKDLDRFKNLVLVHAARYAADLSYLPLMQELEKRYEGKLRIQTVVSRETAAGSLTGRIPALIESGELESTIGLPMNKETSHVMLCGNPQMVRDTQQLLKETRQMTKHLRRRPGHMTAEHYW,–,4.14 ± 0.33,4.64 ± 0.33,3.83 ± 0.12,10.8 ± 0.21,4.29 ± 0.31,6.73 ± 0.41,5.609 ± 0.031,11.3 ± 0.53,3.93 ± 0.36,5.62 ± 0.29,2.888 ± 0.0031
MAEFPASLLILNGKSTDNLPLREAIMLLREEGMTIHVRVTWEKGDAARYVEEARKFGVATVIAGGGDGTINEVSTALIQCEGDDIPALGILPLGTANDFATSVGIPEALDKALKLAIAGDAIAIDMAQVNKQTCFINMATGGFGTRITTETPEKLKAALGSVSYIIHGLMRMDTLQPDRCEIRGENFHWQGDALVIGIGNGRQAGGGQQLCPNALINDGLLQLRIFTGDEILPALVSTLKSDEDNPNIIEGASSWFDIQAPHDITFNLDGEPLSGQNFHIEILPAALRCRLPPDCPLLR,5 ± 0.044,3.94 ± 0.33,4.69 ± 0.069,4.31 ± 0.74,9.08 ± 0.56,4.51 ± 0.3,7.91 ± 0.14,5.17 ± 0.48,9.75 ± 0.16,4.23 ± 0.21,5.73 ± 0.4,3.19 ± 0.41
MAEHRGGSGNFAEDREKASDAGRKGGQHSGGNFKNDPQRASEAGKKGGQQSGGNKSGKS,0.599,–,1.5,–,–,1.49,1.92 ± 0.038,–,–,–,–,–
MAEKFIKHTGLVVPLDAANVDTDAIIPKQFLQKVTRTGFGAHLFNDWRFLDEKGQQPNPDFVLNFPQYQGASILLARENFGCGSSREHAPWALTDYGFKVVIAPSFADIFYGNSFNNQLLPVKLSDAEVDELFALVKANPGIHFDVDLEAQEVKAGEKTYRFTIDAFRRHCMMNGLDSIGLTLQHDDAIAAYEAKQPAFMN,3.91 ± 0.1,2.363 ± 0.02,3.85 ± 0.072,2.306 ± 0.018,3.926 ± 0.038,2.54 ± 0.17,4.05 ± 1.3,2.1 ± 0.28,5.15 ± 0.8,1.33 ± 0.047,3.02 ± 0.097,1.96 ± 0.16
MAEKKQWHETLHDQFGQYFAVDNVLYHEKTDHQDLIIFENAAFGRVMALDGVVQTTERDEFIYHEMMTHVPLLAHGHAKHVLIIGGGDGAMLREVTRHKNVESITMVEIDAGVVSFCRQYLPNHNAGSYDDPRFKLVIDDGVNFVNQTSQTFDVIISDCTDPIGPGESLFTSAFYEGCKRCLNPGGIFVAQNGVCFLQQEEAIDSHRKLSHYFSDVGFYQAAIPTYYGGIMTFAWATDNDALRHLSTEIIQARFLASGLKCRYYNPAIHTAAFALPQYLQDALASQPS,–,4.51 ± 0.12,4.89 ± 0.27,4.49 ± 0.41,9.58 ± 0.14,4.21 ± 0.35,7.27 ± 0.36,5.86 ± 0.46,13 ± 2.3,4.62 ± 0.2,7.06 ± 0.82,–
